Reference: patent US20210238281A1 (INSTITUT NATIONAL DE LA SANTE ET DE LA RECHERCHE MEDICALE …, published 2021)

T1: murine FcγRI (murine, UniProt P26151 25-297)
T1 construct: also called FcγRIA; CD64
T1 sequence (looked up): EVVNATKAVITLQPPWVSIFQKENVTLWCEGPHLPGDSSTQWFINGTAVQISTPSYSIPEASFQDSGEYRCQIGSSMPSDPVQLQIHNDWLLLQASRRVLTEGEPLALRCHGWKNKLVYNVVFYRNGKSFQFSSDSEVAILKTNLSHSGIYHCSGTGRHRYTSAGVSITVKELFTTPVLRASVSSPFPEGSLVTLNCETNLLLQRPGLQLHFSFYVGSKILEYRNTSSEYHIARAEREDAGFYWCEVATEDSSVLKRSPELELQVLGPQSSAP

T2: murine FcγRIII (murine, UniProt P08508 31-215)
T2 sequence (looked up): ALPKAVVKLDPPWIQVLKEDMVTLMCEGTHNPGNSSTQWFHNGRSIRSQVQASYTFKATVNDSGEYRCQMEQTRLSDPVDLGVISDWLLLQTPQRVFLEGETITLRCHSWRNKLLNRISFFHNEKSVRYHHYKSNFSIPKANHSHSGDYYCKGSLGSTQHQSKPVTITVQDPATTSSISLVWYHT

T3: murine FcγRIV (murine, UniProt A0A0B4J1G0 21-203)
T3 sequence: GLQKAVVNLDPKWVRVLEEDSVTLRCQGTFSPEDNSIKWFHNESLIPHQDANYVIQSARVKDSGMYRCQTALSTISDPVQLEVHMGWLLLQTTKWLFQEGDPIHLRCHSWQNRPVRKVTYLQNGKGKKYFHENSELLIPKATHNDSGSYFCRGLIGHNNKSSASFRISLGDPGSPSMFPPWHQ

T4: murine FcγRIIB (murine, UniProt P08101 30-207, limits assumed)
T4 sequence (looked up): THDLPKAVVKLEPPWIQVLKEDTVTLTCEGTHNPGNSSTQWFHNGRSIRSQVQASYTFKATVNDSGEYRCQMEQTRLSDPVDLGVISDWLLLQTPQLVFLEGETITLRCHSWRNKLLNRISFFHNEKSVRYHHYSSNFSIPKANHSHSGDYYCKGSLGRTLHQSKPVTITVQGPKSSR

B1: recombinant murine monoclonal antibody 8-18C5 (8-18C5-WT) (antibody, mouse IgG1, kappa)
heavy: EVKLHESGAGLVKPGASVEISCKATGYTFSSFWIEWVKQRPGHGLEWIGEILPGRGRTNYNEKFKGKATFTAETSSNTAYMQLSSLTSEDSAVYYCATGNTMVNMPYWGQGTTVTVSSAKTTPPSVYPLAPGSAAQTNSMVTLGCLVKGYFPEPVTVTWNSGSLSSGVHTFPAVLESDLYTLSSSVTVPSSPRPSETVTCNVAHPASSTKVDKKIVPRDCGCKPCICTVPEVSSVFIFPPKPKDVLTITLTPKVTCVVVDISKDDPEVQFSWFVDDVEVHTAQTQPREEQFNSTFRSVSELPIMHQDWLNGKEFKCRVNSAAFPAPIEKTISKTKGRPKAPQVYTIPPPKEQMAKDKVSLTCMITDFFPEDITVEWQWNGQPAENYKNTQPIMNTNGSYFVYSKLNVQKSNWEAGNTFTCSVLHEGLHNHHTEKSLSHSPGK
light: DIELTQSPSSLAVSAGEKVTMSCKSSQSLLNSGNQKNYLAWYQQKPGLPPKLLIYGASTRESGVPDRFTGSGSGTDFTLTISSVQAEDLAVYYCQNDHSYPLTFGAGTKLEIKRADAAPTVSIFPPSSEQLTSGGASVVCFLNNFYPKDINVKWKIDGSERQNGVLNSWTDQDSKDSTYSMSSTLTLTKDEYERHNSYTCEATHKTSTSPIVKSFNRNEC
notes: Murine IgG1 (consensus IGHG1*01 constant domain) produced in HEK or YB2/0 cells; also called mAb 8-18C5; YB2
B2: 8-18C5-Del variant of the recombinant murine antibody 8-18C5 (antibody, mouse IgG1, kappa)
heavy: EVKLHESGAGLVKPGASVEISCKATGYTFSSFWIEWVKQRPGHGLEWIGEILPGRGRTNYNEKFKGKATFTAETSSNTAYMQLSSLTSEDSAVYYCATGNTMVNMPYWGQGTTVTVSSAKTTPPSVYPLAPGSAAQTNSMVTLGCLVKGYFPEPVTVTWNSGSLSSGVHTFPAVLESDLYTLSSSVTVPSSPRPSETVTCNVAHPASSTKVDKKIVPRDCGCKPCICTVPEVSSVFIFPPKPKDVLTITLTPKVTCVVVDISKDDPEVQFSWFVDDVEVHTAQTQPREQFNSTFRSVSELPIMHQDWLNGKEFKCRVNSAAFPAPIEKTISKTKGRPKAPQVYTIPPPKEQMAKDKVSLTCMITDFFPEDITVEWQWNGQPAENYKNTQPIMNTNGSYFVYSKLNVQKSNWEAGNTFTCSVLHEGLHNHHTEKSLSHSPGK
light: B1 light
modifications: Fc N-glycan highly sialylated (antibody produced in YB2/0 cells); the letters do not carry it.
notes: Murine IgG1, produced in YB2/0 cells; also called m8-18C5-Del

Experiments:
Test in all cases: ELISA, IgG aggregated with anti-IgG F(ab')2-HRP on coated FcγR
murine FcγRI = molecular target: T1, murine FcγRI
Method: (§1) The binding of the 8-18C5-WT and 8-18C5-Del antibodies to human or murine FcγRs was measured by ELISA after incubation, with the F(ab′)2 of goat anti-human IgG HRP for 2 h at room temperature (at a final concentration of 0.5 μg/ml for each molecule) with gentle stirring. The IgGs aggregated to the F(ab′)2 were then incubated with gentle agitation for 1 h at 30° C. on the Maxisorp or NiNTA immunoplates previously coated with the FcγR and saturated with PBS-BSA 4%.

murine FcγRIII = molecular target: T2, murine FcγRIII
Method: as §1

murine FcγRIV = molecular target: T3, murine FcγRIV
Method: as §1

murine FcγRIIB = molecular target: T4, murine FcγRIIB
Method: as §1

| Binder | binding result (murine FcγRI) | binding result (murine FcγRIII) | binding result (murine FcγRIV) | binding result (murine FcγRIIB) |
| --- | --- | --- | --- | --- |
| B1 | no binding (tested: 0.5 µg/ml) | binds | no binding (tested: 0.5 µg/ml) | binds |
| B2 | no binding (tested: 0.5 µg/ml) | no binding (tested: 0.5 µg/ml) | no binding (tested: 0.5 µg/ml) | no binding (tested: 0.5 µg/ml) |
